The source of these data is patent publication US7265263B1, “Potato transcription factors, methods of use thereof, and a method for enhancing tuber development” (Iowa State University Research Foundation, Inc., priority 2002, dated 2007).

One test concerns the target T1, GAD protein alone (UniProt P04386 768-881, limits assumed).
T1 construct: Control of the immunoprecipitation
T1 sequence (looked up): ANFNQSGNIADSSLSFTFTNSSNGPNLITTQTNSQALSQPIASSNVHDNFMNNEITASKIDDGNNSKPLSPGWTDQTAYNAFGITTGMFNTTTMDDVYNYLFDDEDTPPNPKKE
The test can be described thus: in vitro translated 35S-labelled proteins, immunoprecipitation with anti-GAD antibodies. Here is the method: (§1) In vitro binding experiments were performed as described by Ni et al., "PIF3, a Phytochrome-Interacting Factor Necessary for Normal Photoinduced Signal Transduction, is a Novel Basic *Helix*-Loop-Helix Protein," *Cell* 95:657-667 (1998), which is hereby incorporated by reference in its entirety. The full-length sequence for POTH1 was cloned into a pET17b/GAD fusion cassette and transcribed under the control of the T7 promoter. The BEL cDNAs were cloned into pGEM11Z vectors and were transcribed under the control of the T7 promoter. ^35S-methionine labeled bait and prey proteins were synthesized using the TnT in vitro transcription-translation kit (Promega) according to the manufacturer's protocols. Each 50 μl TnT reaction contained 2.0 μg of template plasmid DNA and 20 μmol (20 μCi) of labeled ^35S-methionine. The POTH1:GAD/BEL complex was immunoprecipitated with anti-GAD antibodies (Santa Cruz Biotechnology, Calif.). The proteins from the pellet (one-half the fraction) and for the prey (one-fourth of the reaction volume) were resolved on a 10% SDS-PAGE gel and visualized by autoradiography.

The target in test [1] is T2, GAD:POTH1 fusion protein (Solanum tuberosum).
T2 construct: 35S-methionine labelled, made by in vitro transcription/translation for the immunoprecipitation; also called POTH1:GAD
T2 chain: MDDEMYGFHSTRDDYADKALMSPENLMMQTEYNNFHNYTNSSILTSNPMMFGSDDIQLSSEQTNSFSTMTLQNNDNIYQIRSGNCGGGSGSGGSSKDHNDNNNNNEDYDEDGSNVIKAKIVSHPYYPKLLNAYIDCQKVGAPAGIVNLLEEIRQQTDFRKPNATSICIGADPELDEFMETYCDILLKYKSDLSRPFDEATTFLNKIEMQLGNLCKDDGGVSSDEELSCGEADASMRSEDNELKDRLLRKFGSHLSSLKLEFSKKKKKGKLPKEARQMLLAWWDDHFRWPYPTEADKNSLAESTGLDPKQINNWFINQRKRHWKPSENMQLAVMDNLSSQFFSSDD
The test can be described thus: in vitro translated 35S-labelled proteins, co-immunoprecipitation with anti-GAD antibodies, SDS-PAGE autoradiography. Here is the method: as §1

For test [2], the system named is POTH1. The test can be described thus: In vitro binding assay (immunoprecipitation) with POTH1. Details: species or system Solanum tuberosum. The following applies: in vitro transcription/translation, anti-GAD. Here is the method: In vitro binding experiments were performed as described by Ni et al., “PIF3, a Phytochrome-Interacting Factor Necessary for Normal Photoinduced Signal Transduction, is a Novel Basic Helix-Loop-Helix Protein,” Cell 95:657-667 (1998), which is hereby incorporated by reference in its entirety. The full-length sequence for POTH1 was cloned into a pET17b/GAD fusion cassette and transcribed under the control of the T7 promoter. […] Each 50 μl TnT reaction contained 2.0 μg of template plasmid DNA and 20 μmol (20 μCi) of labeled ^35S-methionine. The POTH1:GAD/BEL complex was immunoprecipitated with anti-GAD antibodies (Santa Cruz Biotechnology, Calif.). The proteins from the pellet (one-half the fraction) and for the prey (one-fourth of the reaction volume) were resolved on a 10% SDS-PAGE gel and visualized by autoradiography.

The test system of test [3] is POTH1. The test can be described thus: Yeast two-hybrid interaction with POTH1. It is filed as binding, Solanum tuberosum. The following applies: nutritional selection and lacZ activation, yeast AH109. An excerpt: (§2) The Matchmaker two-hybrid system (Clontech, Calif.) was used for the yeast two-hybrid screen. Yeast transformation and plasmid rescue into DH5-α E. coli cells were according to the manufacturer's instructions. Full-length POTH1 was cloned into the pBridge (Clontech, Calif.) vector and used as bait to screen the potato (S. tuberosum ‘Desireé’) stolon cDNA library in pAD-GAL4-2.1 (Stratagene, Calif.). Positive interactions were confirmed by cotransforming yeast strain AH109 with each purified pAD plasmid and pBridge: POTH1 and plating on -leucine/-tryptophan (transformation control) and -leucine/-tryptophan/-histidine/-adenine (selection) nutrient medium. Induction of the AH109 reporter gene, lacZ, was measured with a yeast β-galactosidase assay kit (Pierce Chemicals). β-galactosidase activity (FIG. 9B) was determined from a known density of yeast cells and calculated as 1000×OD420/time of color reaction (minutes)×volume of yeast culture (ml)×OD600.
The StBEL-05 deletion constructs were amplified by PCR, then cloned into the vector, pGAD, in-frame with the GAL4 activation domain. POTH1 deletion constructs were amplified by PCR, and cloned into pBridge (Clontech) in-frame with the GAL4 binding domain. Sequencing of selected cDNAs and constructs was performed at the Iowa State University DNA Facility. For deletion analysis, modified constructs of POTH1 were cloned into the pBridge vector for fusion with the DNA-binding domain of GAL4 (FIG. 10A). For StBEL-05, constructs were cloned into the pGAD vector for fusion with the activating domain of GAL4 (FIG. 10B). Deletion constructs were made from both the amino and carboxy termini. These mutants were then tested for interaction in the yeast two-hybrid system by cotransforming into yeast strain AH109 with the corresponding full-length partner (StBEL-05 in pGAL4 or POTH1 in pBridge). All constructs were sequenced to verify that they were in-frame. Positive interactions were verified for lacZ induction by using a β-galactosidase assay (Pierce Chemical Company). For POTH1, seven deletion constructs were tested (FIG. 10A). For the BEL TFs, a fusion construct of StBEL-05 (653 aa of StBEL-05 sequence) and nine deletion constructs were tested (FIG. 10B).

For test [4], the target named is T3, StBEL-05 protein from pGEM11Z (in vitro transcription/translation) (Solanum tuberosum).
T3 construct: 35S-methionine labelled prey; also called p11Z-5
T3 chain: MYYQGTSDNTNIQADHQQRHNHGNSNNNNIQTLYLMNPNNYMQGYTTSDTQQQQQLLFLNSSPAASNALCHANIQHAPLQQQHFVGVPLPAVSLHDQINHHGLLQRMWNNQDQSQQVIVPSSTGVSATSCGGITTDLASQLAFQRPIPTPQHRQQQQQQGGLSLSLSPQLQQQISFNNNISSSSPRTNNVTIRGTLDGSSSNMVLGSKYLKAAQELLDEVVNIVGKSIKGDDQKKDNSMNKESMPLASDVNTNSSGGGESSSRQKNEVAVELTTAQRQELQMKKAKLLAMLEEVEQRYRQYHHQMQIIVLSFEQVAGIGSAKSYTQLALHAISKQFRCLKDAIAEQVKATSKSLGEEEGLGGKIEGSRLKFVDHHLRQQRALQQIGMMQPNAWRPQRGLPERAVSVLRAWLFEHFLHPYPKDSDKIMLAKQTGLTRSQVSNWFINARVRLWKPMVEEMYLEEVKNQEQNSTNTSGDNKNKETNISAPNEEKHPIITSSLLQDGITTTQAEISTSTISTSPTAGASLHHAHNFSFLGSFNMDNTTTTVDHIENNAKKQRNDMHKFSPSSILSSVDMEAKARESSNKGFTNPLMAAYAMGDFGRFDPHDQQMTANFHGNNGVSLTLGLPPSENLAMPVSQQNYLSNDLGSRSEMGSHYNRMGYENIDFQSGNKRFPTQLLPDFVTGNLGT
The test can be described thus: in vitro binding protocol (pull-down). How it is done:
as §1

For test [5], the target named is T2, GAD:POTH1 fusion protein. The test can be described thus: in vitro transcription/translation, immunoprecipitation assay. Here is the method: as §1
Test [6] concerns the target T4, POTH1 in pBridge (full-length POTH1 fused with the GAL4 DNA-binding domain) (Solanum tuberosum).
T4 construct: Bait of the yeast two-hybrid screen and partner of the StBEL-05 deletion constructs; also called pBHD; pBridge:POTH1
The test can be described thus: quantitative yeast two-hybrid beta-galactosidase assay.
Text: as §2, with “*E. coli*” for “E. coli”, “(*S. tuberosum* 'Desireé')” for “(S. tuberosum ‘Desireé’)”, “1000 ×OD420/time” for “1000×OD420/time”, “(ml)×$OD600$.” for “(ml)×OD600.”
The StBEL-05 deletion constructs were amplified by PCR, then cloned into the vector, pGAD, in-frame with the GAL4 activation domain. POTH1 deletion constructs were amplified by PCR, and cloned into pBridge (Clontech) in-frame with the GAL4 binding domain. Sequencing of selected cDNAs and constructs was performed at the Iowa State University DNA Facility. […]

B1: StBEL-30 protein from pGEM11Z (in vitro transcription/translation) (other)
chain: MATYFPSPNNQRDADQTFQYFRQSLPESYSEASNAPENMMVFMNYSSSGAYSDMLTGTSQQQHNCIDIPSIGATPFNTSQQEILSNLGGSQMGIQDFSSWRDSRNEMLADNVFQVAQNVQGQGLSLSLGSNIPSGIGISHVQSQNPNQGGGFNMSFGDGDNSQPKEQRNADYFPPDNPGRDLDAMKGYNSPYGTSSIARTIPSSKYLKAAQYLLDEVVSVRKAIKEQNSKKELTKDSRESDVDSKNISSDTPANGGSNPHESKNNQSELSPTEKQEVQNKLAKLLSMLDEIDRRYRQYYHQMQIVVSSFDVVAGEGAAKPYTALALQTISRHFRCLRDAICDQIRASRRSLGEQDASENSKAIGISRLRFVDHHIRQQRALQQLGMMQQHAWRPQRGLPESSVSVLRAWLFEHFLHPYPKDSDKIMLARQTGLTRSQVSNWFINARVRLWKPMVEEMYKEEAGDAKIDSNSSSDVAPRLATKDSKVEERGELHQNAASEFEQYNSGQILESKSNHEADVEMEGASNAETQSQSGMENQTGEPLPAMDNCTLFQDAFVQSNDRFSEFGSFGSGNVLPNGVSLTLGLQQGEGSNLPMSIETHVSYVPLRADDMYSTAPTTMVPETAEFNCLDSGNRQQPFWLLPSAT
notes: 35S-methionine labelled prey; also called p11Z-30
With B1, the binding result in the test with GAD protein alone is “no binding”; with GAD:POTH1 fusion protein [1], “binds”. Moreover, the “pull-down by POTH1 in immunoprecipitation” value in the test with POTH1 [2] was “pulled down”. In addition, in the test on POTH1 [3], the “interaction with POTH1” value is “showed selective interaction”.

B2: pBHD9 construct as used in the in vitro binding protocol (other)
chain: MDDEMYGFHSTRDDYADKALMSPENLMMQTEYNNFHNYTNSSILTSNPMMFGSDDIQLSSEQTNSFSTMTLQNNDNIYQIRSGNCGGGSGSGGSSKDHNDNNNNNEDYDEDGSN
For the molecule B2, the binding result in test [4] is recorded as “no binding”.

B3: StBEL-13 protein from pGEM11Z (in vitro transcription/translation) (other)
chain: MVMGGGASSQQLGYAKNHTPNVAESMQLFLMNPQPRSPSPSPPNSTSSTLHMLLPNPSSTSTLQGFPNPAEGSFGQFITWGNGGASAATATHHLNAQNEIGGVNVVESQGLSLSLSSSLQHKAEELQMSGEAGGMMFFNQGGSSTSGQYRYKNLNMGGSGVSPNIHQVHVGYGSSLGVVNVLRNSKYAKAAQELLEEFCSVGRGKLKKTNNKAAANNPNTNPSGANNEASSKDVPTLSAADRIEHQRRKVKLLSMVDEVDRRYNHYCEQMQMVVNSFDLVMGFGTAVPYTALAQKAMSRHFRCLKDAIGAQLKQSCELLGEKDAGNSGLTKGETPRLKMLEQSLRQQRAFHQMGMMEQEAWRPQRGLPERSVNILRAWLFEHFLHPYPSDADKHLLARQTGLSRNQVSNWFINARVRLWKPMVEDMYQQEAKDEDGDGDEKSQSQNSGNNIIAQTPTPNSLTNTSSTNMTTTTAPTTTTALAAAETGTAATPITVTSSKRSQINATDSDPSLVAINSFSENQATFPTNIHDPDDCRRGNLSGDDGTTTHDHMGSTMIRFGTTAGDVSLTLGLRHAGNLPENTHFFG
notes: 35S-methionine labelled prey; also called p11Z-13
On to B3, for which the binding result is recorded as “no binding” with GAD protein alone and “binds” in the test with GAD:POTH1 fusion protein [5]. For the same molecule, in the test on POTH1 [2], the “pull-down by POTH1 in immunoprecipitation” value is “pulled down”. The “interaction with POTH1” value with POTH1 [3] was “showed selective interaction”.

B4: pAD5-1 (StBEL-05 deletion construct in pGAD) (other, not shown: small tags and cut ends)
chain: KNEVAVELTTAQRQELQMKKAKLLAMLEEVEQRYRQYHHQMQIIVLSFEQVAGIGSAKSYTQLALHAISKQFRCLKDAIAEQVKATSKSLGEEEGLGGKIEGSRLKFVDHHLRQQRALQQIGMMQPNAWRPQRGLPERAVSVLRAWLFEHFLHPYPKDSDKIMLAKQTGLTRSQVSNWFINARVRLWKPMVEEMYLEEVKNQEQNSTNTSGDNKNKETNISAPNEEKHPIITSSLLQDGITTTQAEISTSTISTSPTAGASLHHAHNFSFLGSFNMDNTTTTVDHIENNAKKQRNDMHKFSPSSILSSVDMEAKARESSNKGFTNPLMAAYAMGDFGRFDPHDQQMTANFHGNNGVSLTLGLPPSENLAMPVSQQNYLSNDLGSRSEMGSHYNRMGYENIDFQSGNKRFPTQLLPDFVTGNLGT
notes: Lacks the SKY box; residues converted from pAD-05 numbering
B4: the “decrease in the induction of the lacZ marker (beta-galactosidase activity) relative to the full-length construct, StBEL-05” value in test [6] came out at 55%.
